How the values were obtained:
Assay in all cases: IP/MS, LZTR1 R810W-FLAG, U87
[1] = target: DPP9 (human, UniProt Q86TI2 2-863, limits assumed)
Procedure, shortened: (§1)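 Gel slices were reduced with 5 mM DTT, alkylated with 11 mM IAA and digested overnight at 37° C. with trypsin. Peptides were analysed on an Orbitrap Fusion Tribrid by LC-MS/MS.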

[2] = target: ARFGEF1 (human, UniProt Q9Y6D6 1-1849)
Procedure, shortened: as §1

[3] = target: PARP14 (human, UniProt Q460N5 1-1801, limits assumed)
Procedure, shortened: as §1

[4] = target: T1, RAPH1 (human, UniProt Q70E73 1-1250, limits assumed)
T1 sequence (looked up): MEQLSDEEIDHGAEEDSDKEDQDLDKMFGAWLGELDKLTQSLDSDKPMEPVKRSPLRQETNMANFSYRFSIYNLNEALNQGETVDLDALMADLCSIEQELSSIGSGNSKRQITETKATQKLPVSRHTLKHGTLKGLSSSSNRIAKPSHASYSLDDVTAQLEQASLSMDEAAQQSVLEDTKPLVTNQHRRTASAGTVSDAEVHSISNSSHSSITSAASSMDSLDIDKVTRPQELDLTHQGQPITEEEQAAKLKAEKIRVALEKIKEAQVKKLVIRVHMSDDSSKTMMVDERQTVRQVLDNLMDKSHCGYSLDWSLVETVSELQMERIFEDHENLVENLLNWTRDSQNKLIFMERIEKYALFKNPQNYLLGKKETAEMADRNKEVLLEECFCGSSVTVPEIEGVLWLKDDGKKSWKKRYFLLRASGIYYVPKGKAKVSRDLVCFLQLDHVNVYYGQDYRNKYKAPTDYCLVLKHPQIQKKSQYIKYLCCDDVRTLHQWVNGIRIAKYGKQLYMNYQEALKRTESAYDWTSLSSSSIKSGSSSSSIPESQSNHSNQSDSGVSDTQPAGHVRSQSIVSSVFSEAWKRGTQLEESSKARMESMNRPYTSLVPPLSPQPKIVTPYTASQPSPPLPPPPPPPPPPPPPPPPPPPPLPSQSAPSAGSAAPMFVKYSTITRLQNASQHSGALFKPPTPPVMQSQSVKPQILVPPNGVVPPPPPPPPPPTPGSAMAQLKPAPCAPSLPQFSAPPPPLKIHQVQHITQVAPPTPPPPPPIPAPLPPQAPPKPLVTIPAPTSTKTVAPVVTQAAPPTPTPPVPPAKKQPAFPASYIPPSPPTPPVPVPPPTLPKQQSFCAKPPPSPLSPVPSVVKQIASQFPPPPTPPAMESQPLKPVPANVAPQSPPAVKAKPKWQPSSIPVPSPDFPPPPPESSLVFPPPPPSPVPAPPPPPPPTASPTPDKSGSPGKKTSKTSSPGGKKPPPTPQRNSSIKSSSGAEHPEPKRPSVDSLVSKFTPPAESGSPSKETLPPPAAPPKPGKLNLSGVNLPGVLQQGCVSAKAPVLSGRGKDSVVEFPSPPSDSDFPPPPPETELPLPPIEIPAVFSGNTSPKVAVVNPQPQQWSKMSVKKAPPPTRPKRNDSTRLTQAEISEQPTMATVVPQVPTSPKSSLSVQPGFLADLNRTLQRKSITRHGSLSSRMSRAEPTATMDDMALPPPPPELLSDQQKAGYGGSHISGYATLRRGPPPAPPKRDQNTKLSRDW
Procedure, shortened: as §1

[5] = target: EPG5 (human, UniProt Q9HCE0 1-2579, limits assumed)
EPG5, sequence (Q9HCE0 whole entry): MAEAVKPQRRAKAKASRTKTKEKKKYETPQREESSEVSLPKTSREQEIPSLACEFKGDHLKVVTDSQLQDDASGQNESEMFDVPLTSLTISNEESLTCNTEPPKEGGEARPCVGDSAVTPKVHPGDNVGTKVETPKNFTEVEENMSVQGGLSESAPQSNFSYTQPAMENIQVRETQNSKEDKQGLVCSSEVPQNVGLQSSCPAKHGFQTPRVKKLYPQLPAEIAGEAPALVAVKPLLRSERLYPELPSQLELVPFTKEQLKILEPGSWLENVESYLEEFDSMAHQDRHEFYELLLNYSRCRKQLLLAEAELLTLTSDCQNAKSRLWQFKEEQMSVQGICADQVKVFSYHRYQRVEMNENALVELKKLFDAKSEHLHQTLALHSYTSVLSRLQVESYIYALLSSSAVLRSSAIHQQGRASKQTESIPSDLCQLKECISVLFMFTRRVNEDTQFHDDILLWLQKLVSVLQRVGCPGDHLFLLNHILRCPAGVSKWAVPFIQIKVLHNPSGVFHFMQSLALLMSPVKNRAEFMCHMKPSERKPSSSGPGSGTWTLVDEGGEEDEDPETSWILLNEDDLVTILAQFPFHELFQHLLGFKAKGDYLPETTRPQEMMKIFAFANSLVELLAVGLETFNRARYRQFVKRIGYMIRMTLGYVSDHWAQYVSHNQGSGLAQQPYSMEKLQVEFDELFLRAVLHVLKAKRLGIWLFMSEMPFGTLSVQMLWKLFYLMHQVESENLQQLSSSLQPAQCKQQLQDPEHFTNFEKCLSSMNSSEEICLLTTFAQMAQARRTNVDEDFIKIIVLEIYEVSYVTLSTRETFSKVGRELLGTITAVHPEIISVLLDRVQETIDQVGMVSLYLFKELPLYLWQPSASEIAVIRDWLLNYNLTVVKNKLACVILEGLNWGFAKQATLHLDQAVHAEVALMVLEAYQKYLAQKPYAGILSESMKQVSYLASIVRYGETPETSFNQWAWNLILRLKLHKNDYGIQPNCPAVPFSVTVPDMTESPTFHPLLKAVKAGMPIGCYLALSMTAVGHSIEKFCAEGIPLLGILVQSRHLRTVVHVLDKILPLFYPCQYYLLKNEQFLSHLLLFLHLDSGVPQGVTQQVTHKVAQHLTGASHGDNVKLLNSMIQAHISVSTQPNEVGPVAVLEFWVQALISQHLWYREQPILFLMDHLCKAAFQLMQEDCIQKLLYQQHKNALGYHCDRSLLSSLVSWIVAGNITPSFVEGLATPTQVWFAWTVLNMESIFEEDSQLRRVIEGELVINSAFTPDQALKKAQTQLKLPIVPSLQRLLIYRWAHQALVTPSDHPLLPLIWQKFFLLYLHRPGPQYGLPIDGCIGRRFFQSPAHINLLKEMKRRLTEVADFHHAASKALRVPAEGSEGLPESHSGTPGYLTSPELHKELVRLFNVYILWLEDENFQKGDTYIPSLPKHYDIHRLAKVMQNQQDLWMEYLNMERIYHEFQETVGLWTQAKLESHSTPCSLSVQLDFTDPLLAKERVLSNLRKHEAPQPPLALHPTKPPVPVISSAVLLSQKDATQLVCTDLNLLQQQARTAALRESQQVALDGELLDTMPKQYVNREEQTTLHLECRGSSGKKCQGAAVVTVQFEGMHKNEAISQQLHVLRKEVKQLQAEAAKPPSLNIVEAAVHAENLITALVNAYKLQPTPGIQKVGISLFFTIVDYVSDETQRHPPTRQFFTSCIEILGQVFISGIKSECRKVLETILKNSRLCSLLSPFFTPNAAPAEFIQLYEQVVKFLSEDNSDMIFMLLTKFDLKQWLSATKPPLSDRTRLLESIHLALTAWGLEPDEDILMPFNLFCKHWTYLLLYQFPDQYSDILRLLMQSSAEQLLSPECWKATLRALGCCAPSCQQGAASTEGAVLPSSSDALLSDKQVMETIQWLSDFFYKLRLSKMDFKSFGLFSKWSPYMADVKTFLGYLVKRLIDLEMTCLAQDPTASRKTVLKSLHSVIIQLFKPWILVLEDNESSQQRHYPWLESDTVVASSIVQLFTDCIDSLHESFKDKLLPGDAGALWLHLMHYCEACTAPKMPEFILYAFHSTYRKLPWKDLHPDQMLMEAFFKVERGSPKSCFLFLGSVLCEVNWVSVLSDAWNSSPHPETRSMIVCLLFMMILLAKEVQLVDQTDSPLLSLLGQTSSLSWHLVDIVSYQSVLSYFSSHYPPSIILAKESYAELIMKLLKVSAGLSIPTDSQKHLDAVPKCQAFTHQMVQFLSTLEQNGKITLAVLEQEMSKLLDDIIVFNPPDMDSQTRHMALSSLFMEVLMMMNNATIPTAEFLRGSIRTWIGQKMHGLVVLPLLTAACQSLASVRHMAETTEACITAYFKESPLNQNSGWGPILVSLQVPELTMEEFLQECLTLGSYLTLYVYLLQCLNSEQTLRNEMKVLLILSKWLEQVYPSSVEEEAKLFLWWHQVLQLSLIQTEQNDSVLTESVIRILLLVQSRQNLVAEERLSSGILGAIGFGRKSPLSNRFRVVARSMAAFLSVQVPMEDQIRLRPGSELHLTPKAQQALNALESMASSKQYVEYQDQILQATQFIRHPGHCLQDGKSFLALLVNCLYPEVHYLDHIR
Procedure, shortened: as §1

Measured: binding result

ARFGEF1, sequence (Q9Y6D6 whole entry): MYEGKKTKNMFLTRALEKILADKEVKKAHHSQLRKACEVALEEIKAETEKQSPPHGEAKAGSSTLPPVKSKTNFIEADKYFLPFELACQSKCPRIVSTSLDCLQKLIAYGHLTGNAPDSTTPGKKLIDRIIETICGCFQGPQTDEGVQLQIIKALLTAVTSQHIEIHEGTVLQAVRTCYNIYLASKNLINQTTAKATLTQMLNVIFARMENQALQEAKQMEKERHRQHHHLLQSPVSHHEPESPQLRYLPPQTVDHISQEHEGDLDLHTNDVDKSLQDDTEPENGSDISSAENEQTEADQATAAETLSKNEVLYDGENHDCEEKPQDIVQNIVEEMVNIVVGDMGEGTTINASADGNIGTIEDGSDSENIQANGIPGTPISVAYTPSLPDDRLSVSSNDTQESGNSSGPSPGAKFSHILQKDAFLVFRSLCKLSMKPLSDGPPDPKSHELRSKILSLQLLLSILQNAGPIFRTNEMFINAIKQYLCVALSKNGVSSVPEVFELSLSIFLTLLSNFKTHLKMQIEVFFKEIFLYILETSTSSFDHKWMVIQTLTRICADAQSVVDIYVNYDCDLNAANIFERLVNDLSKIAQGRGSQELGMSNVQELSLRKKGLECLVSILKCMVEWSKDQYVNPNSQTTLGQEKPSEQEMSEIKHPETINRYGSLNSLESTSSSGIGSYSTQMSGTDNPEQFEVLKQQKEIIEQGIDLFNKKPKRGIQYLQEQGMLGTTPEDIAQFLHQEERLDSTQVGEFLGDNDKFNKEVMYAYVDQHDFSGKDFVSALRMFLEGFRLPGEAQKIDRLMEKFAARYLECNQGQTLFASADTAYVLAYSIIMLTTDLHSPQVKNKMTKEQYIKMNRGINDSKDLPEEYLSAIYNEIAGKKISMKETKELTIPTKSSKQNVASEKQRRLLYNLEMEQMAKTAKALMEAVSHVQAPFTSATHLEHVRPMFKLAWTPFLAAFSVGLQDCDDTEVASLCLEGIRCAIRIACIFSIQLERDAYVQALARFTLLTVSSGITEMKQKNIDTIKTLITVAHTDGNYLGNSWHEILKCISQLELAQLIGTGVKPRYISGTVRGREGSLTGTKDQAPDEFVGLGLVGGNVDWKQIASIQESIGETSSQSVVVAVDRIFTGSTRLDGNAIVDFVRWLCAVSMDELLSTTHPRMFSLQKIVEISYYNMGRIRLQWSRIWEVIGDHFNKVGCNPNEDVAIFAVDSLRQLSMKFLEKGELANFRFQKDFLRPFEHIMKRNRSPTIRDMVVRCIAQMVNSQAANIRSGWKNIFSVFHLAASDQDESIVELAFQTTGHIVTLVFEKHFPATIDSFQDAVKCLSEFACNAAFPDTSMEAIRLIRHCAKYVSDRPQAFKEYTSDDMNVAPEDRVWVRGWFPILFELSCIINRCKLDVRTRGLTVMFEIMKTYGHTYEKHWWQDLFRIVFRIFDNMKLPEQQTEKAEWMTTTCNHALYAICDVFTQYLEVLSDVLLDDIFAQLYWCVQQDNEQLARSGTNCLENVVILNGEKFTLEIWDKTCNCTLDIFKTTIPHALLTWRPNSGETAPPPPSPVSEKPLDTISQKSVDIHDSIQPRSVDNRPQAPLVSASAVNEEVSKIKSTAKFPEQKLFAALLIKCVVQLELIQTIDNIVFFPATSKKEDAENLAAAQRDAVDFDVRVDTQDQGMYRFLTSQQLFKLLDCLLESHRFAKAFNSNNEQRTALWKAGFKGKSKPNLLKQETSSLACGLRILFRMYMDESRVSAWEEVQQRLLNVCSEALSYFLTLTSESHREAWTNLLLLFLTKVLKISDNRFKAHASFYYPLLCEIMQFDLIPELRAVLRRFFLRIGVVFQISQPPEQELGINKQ

B1: LZTR1 R810W-FLAG (other, human, UniProt Q8N653 1-840, looked up)
chain: MAGPGSTGGQIGAAALAGGARSKVAPSVDFDHSCSDSVEYLTLNFGPFETVHRWRRLPPCDEFVGARRSKHTVVAYKDAIYVFGGDNGKTMLNDLLRFDVKDCSWCRAFTTGTPPAPRYHHSAVVYGSSMFVFGGYTGDIYSNSNLKNKNDLFEYKFATGQWTEWKIEGRLPVARSAHGATVYSDKLWIFAGYDGNARLNDMWTIGLQDRELTCWEEVAQSGEIPPSCCNFPVAVCRDKMFVFSGQSGAKITNNLFQFEFKDKTWTRIPTEHLLRGSPPPPQRRYGHTMVAFDRHLYVFGGAADNTLPNELHCYDVDFQTWEVVQPSSDSEVGGAEVPERACASEEVPTLTYEERVGFKKSRDVFGLDFGTTSAKQPTQPASELPSGRLFHAAAVISDAMYIFGGTVDNNIRSGEMYRFQFSCYPKCTLHEDYGRLWESRQFCDVEFVLGEKEECVQGHVAIVTARSRWLRRKITQARERLAQKLEQEAAPVPREAPGVAAGGARPPLLHVAIREAEARPFEVLMQFLYTDKIKYPRKGHVEDVLLIMDVYKLALSFQLCRLEQLCRQYIEASVDLQNVLVVCESAARLQLSQLKEHCLNFVVKESHFNQVIMMKEFERLSSPLIVEIVRRKQQPPPRTPLDQPVDIGTSLIQDMKAYLEGAGAEFCDITLLLDGHPRPAHKAILAARSSYFEAMFRSFMPEDGQVNISIGEMVPSRQAFESMLRYIYYGEVNMPPEDSLYLFAAPYYYGFYNNRLQAYCKQNLEMNVTVQNVLQILEAADKTQALDMKRHCLHIIVHQFTKVSKLPTLWSLSQQLLLDIIDSLASHISDKQCAELGADI
notes: Stably expressed in U87 cells by lentivirus; also called LZTR1-FLAG-R810W; LZTR1 RW; not shown: FLAG tag
binds: [1] | [2] | [3] | [4] | [5]

From US20250262210A1 (TRUSTEES OF COLUMBIA UNIVERSITY IN THE CITY OF NEW YORK, published 2025)
